From paper doi:10.1101/2022.06.09.495492, “An atypical F-actin capping protein modulates cytoskeleton behaviors crucial to colonization of Trichomonas vaginalis” (bioRxiv, 2022)

B1: His-TvFACPα (natural protein)
chain: MSESENIKIIKTFLANAPPGEYEQCTAALRSIVNDEDLINRARSETLKTWAEEECIVVDVEDHKVIICKEACQRDGIYVDPVTSSLITYDFESRIATPIGDQANMSDFAKELQEELTAYAKNAYKENAAAGVYDTNNGIVIVLRGSSISLKNFRTGKTVAKYTLSKSGSLEGKIVSIQHFFEKGNAVCQHDGDCNTTCSFGDAKSVVKAIRTFEDEWLADYKTTLEKIGTNVLFQLRRKFPYSKQKINWQQEITVGGGMKC
notes: also called His-TvFACPα wild type; Wt; source: recombinant from pET28-His-TvFACPα, purified to homogeneity (protocol of the supplier, QIAGEN)
B2: HA-TvFACPα (natural protein)
chain: B1 chain
notes: also called HA-TvFACPα wild type; source: T. vaginalis TH17 trophozoites, transgenic (Flp-HA-TvFACPα), in lysate

Columns and labels:
GST-Tvactin [1] = target: T1, GST-Tvactin (T. vaginalis, UniProt A0A8U0WPZ0 1-376); experiment: ELISA; solid-phase binding: 2.5 μM F-actin in F-buffer coated on a 96-well microplate; His-TvFACPα or His-△237 at 0-80 μM, 4°C overnight; anti-6×His detection, OD450; Scatchard plots; conditions: both partners purified
T1 construct: The same construct stands as GST-Tvactin on beads (pull-down), as G-actin (in G-buffer) and as F-actin (polymer, in F-buffer); the assays tell these apart; No removal of GST is described; also called GST fused-α-actin; G-actin; source: polymerized to F-actin in F-buffer), purified on glutathione-conjugated sepharose beads

GST-Tvactin [2] = target: T1, GST-Tvactin; experiment: ELISA; solid-phase binding: 2.5 μM G-actin in G-buffer coated on a 96-well microplate; His-TvFACPα or His-△237 at 0-80 μM, 4°C overnight; anti-6×His detection, OD450; Scatchard plots; conditions: both partners purified
[3] = target: T2, α-actin, endogenous (T. vaginalis) (T. vaginalis (endogenous in TH17 …, UniProt A0A8U0WPZ0 1-376)); experiment: co-sedimentation; actin biochemical fractionation of trophozoite lysates (Cytoskeleton Inc kit): 100,000× g for 1 hr, F-actin and associated proteins in the pellet, G-actin in the supernatant; western blotting; non-transgenic and transgenic TH17, flagellate and amoeboid forms, DMSO or TBB treatment; conditions: partners not purified
T2 construct: α-actin of Trichomonas vaginalis detected by an anti-α-actin antibody as a 42-kDa band; In the cell fractionation it stands as F-actin in the 100,000× g pellet; also called 42-kDa α-actin; F-actin

| Binder | Kd (GST-Tvactin [1]) [µM] | Kd (GST-Tvactin [2]) [µM] | co-sedimented with F-actin, fold of the endogenous form of the non-transfectant [3] [fold] |
| --- | --- | --- | --- |
| B1 | 8.36 | 4.45 | – |
| B2 | – | – | ~2 |
